In patent US8026218 (UNIVERSITY OF ARIZONA, dated 2011):
Bridge positions count the residues as written; N and C are the ends. Square brackets hold non-standard residues; d marks the D form. Primed or numbered codes have the meaning given here. Ends that are not written are not given here. * marks the point of attachment. NHBn(CF3)2 = C-terminal amide NH-Bn(CF3)2, a benzyl group carrying two CF3; NMe‑Bn(CF3)2 = C-terminal N-methyl bis(trifluoromethyl)benzyl amide; NH(3,5-(CF3)2-benzyl) = FC(F)(F)c1cc(CN*)cc(C(F)(F)F)c1; OBzl(3,5-(CF3)2) = FC(F)(F)c1cc(CO*)cc(C(F)(F)F)c1; Glc″ = glucosyl on the serine side-chain oxygen; NH‑Bn(CF3)2 = C-terminal Bn(CF3)2 amide; OBn(CF3)2 = C-terminal Bn(CF3)2 ester; NMe(benzyl) = CN(Cc1ccccc1)*; Nle = CCCC[C@H](N)C(=O)O; Aib = CC(C)(N)C(=O)O; NHBn = c1ccc(CN*)cc1; OBn = c1ccc(CO*)cc1

B1: TyrDAlaGlyPheNleProLeuTrpOBn(CF3)2 (TY018) (peptide)
peptide: YAGFXPLW
modifications: D-Ala at 2; Nle (norleucine) at 5 (X); C-terminal O-3,5-Bn(CF3)2 ester
B2: DmtDAlaGlyPheNleProLeuTrpNHBn-2,4-(OMe)2 (TY054) (peptide)
peptide: YAGFXPLW
modifications: not fully specified; Dmt at 1; D-Ala at 2; Nle at 5 (X); C-terminal NH-Bn-2,4-(OMe)2 amide
B3: MetProLeuTrpNHBn(CF3)2 (TY051) (peptide)
peptide: MPLW-{NHBn(CF3)2}
B4: Tyr[DPenGlyPheDPen]ProLeuTrpNHBn(CF3)2 (TY049) (peptide)
peptide: YXGFXPLW
modifications: D-Pen at 2 and 5 (X); disulfide 2-5 (cyclic); C-terminal NH-Bn(CF3)2 amide
B5: TyrDAlaGlyPheNleSer(OGlu)LeuTrpNHBn(CF3)2 (TY044) (peptide)
peptide: Y[dA]GF[Nle]S(Glc″)LW-{NH‑Bn(CF3)2}
B6: TyrDAlaGlyPheMetProLeuTrpOBn (TY029) (peptide)
peptide: Y[dA]GFMPLW-OBn
B7: Tyr[DCysGlyPheDCys]ProLeuTrpNHBn(CF3)2 (TY037) (peptide)
peptide: Y[dC]GF[dC]PLW-{NH(3,5-(CF3)2-benzyl)}
modifications: disulfide 2-5
B8: Tyr[DCysGlyPheNleProDCys]TrpNHBn(CF3)2 (TY038) (peptide)
peptide: Y[dC]GF[Nle]P[dC]W-{NH(3,5-(CF3)2-benzyl)}
modifications: disulfide 2-7
B9: TyrDAlaGlyPheMetProLeuTrpNHBn(CF3)2 (TY027) (peptide)
peptide: Y[dA]GFMPLW-{NH(3,5-(CF3)2-benzyl)}
B10: TyrDAlaGlyPheMetAlaLeuTrpOBn(CF3)2 (TY020) (peptide)
peptide: Y[dA]GFMALW-{OBzl(3,5-(CF3)2)}
B11: TyrDAlaGlyPheMetAibLeuTrpOBn(CF3)2 (TY022) (peptide)
peptide: Y[dA]GFM[Aib]LW-{OBn(CF3)2}
B12: TyrDAlaGlyPheProLeuTrpNHBn(CF3)2 (TY012) (peptide)
peptide: Y[dA]GFPLW-{NH(3,5-(CF3)2-benzyl)}
B13: TyrDAlaGlyPheProLeuTrpNHBn (TY008) (peptide)
peptide: Y[dA]GFPLW-NHBn
B14: TyrDAlaGlyPheProLeuTrpOBn(CF3)2 (TY001) (peptide)
peptide: Y[dA]GFPLW-{OBzl(3,5-(CF3)2)}
B15: DmtDAlaGlyPheNleProLeuTrpNHBn(CF3)2 (TY050) (peptide)
peptide: YAGFXPLW
modifications: Dmt (2',6'-dimethyl-L-tyrosine) at 1; D-Ala at 2; Nle at 5 (X); C-terminal NH-3,5-Bn(CF3)2 amide
B16: TyrDAlaGlyPheProLeuTrpNMeBn (TY010) (peptide)
peptide: Y[dA]GFPLW-{NMe(benzyl)}
B17: TyrDAlaGlyPheMetNH2 (TY040) (peptide)
peptide: Y[dA]GFM-NH2
B18: TyrDAlaGlyPheProLeuTrpNMeBn(CF3)2 (TY013) (peptide)
peptide: Y[dA]GFPLW-{NMe‑Bn(CF3)2}
B19: TyrDAlaGlyPheProLeuTrpOBn (TY011) (peptide)
peptide: Y[dA]GFPLW-OBn

Molecular target: T1, human δ opioid receptor (human, UniProt P41143 1-372)
T1 construct: whole, on cells; Used as crude membrane preparations of the transfected cells; also called hDOR; DOR
T1 sequence (P41143 whole entry, stated change not applied): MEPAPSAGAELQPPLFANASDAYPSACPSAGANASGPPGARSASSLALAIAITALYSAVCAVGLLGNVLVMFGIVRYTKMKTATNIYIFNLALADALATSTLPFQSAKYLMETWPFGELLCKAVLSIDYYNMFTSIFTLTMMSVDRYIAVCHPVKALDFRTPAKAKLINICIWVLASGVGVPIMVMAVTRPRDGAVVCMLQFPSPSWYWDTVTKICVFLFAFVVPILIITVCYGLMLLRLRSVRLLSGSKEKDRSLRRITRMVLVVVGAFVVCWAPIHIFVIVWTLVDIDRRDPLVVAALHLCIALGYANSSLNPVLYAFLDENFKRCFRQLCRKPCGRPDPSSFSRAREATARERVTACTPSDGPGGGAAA
Assay: radioligand competition vs [3H]DPDPE, membranes of hDOR cells

Binder | Ki [nM]
B1 | 1.8
B2 | 0.15

Molecular target: T2, rat µ opioid receptor (rat, UniProt P33535 1-398)
T2 construct: whole, on cells; Used as crude membrane preparations of the transfected cells; also called rMOR; MOR
T2 sequence (P33535 whole entry): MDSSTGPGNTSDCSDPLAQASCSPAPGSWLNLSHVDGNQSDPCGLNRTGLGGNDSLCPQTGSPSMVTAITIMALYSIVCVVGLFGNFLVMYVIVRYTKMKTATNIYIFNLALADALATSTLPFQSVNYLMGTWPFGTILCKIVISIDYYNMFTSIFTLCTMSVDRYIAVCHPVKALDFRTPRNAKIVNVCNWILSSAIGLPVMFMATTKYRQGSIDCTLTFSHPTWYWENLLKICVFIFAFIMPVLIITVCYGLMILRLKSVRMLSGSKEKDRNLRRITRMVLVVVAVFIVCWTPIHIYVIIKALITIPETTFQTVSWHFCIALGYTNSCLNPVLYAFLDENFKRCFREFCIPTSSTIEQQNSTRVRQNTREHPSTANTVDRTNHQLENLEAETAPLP
Assay: radioligand competition vs [3H]DAMGO, membranes of rMOR cells

Binder | Ki [nM]
B3 | 866
B4 | 2050
B5 | 3370

Molecular target: guinea pig NK1 receptor (guinea pig, UniProt P30547 1-407)
Sequence (P30547 whole entry): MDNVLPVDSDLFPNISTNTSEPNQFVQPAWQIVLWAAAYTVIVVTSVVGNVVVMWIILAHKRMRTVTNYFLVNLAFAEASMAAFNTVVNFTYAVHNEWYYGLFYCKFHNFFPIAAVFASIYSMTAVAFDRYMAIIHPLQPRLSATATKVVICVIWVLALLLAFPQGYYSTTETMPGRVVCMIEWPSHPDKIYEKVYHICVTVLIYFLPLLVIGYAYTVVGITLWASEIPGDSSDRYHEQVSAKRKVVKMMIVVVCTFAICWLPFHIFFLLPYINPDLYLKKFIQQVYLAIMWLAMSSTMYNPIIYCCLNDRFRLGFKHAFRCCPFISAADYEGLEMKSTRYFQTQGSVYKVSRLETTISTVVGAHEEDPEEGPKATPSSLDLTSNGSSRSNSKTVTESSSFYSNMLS
Assay: cell-based or functional assay

Binder | GPI/LMMP SP antagonist Ke [nM]
B6 | 5.1
B7 | 4.7
B8 | 12
B1 | 7.93

Molecular target: µ opioid receptor of the guinea pig isolated ileum (guinea pig, UniProt P97266 1-98)
Sequence (P97266 whole entry): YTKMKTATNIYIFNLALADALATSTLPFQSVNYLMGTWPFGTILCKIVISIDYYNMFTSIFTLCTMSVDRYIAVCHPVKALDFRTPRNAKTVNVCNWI
Assay: cell-based or functional assay

Binder | GPI/LMMP opioid(mu) agonist IC50
B6 | 22.2 nM
B7 | 284 nM
B8 | 3 % at 1 uM
B9 | 488 nM
B1 | 372 nM

Molecular target: T1, human δ opioid receptor
Assay: cell-based or functional assay

Binder | GTP binding hDOR Emax [%] | GTP binding hDOR EC50 [nM]
B10 | 26.4 | –
B6 | 98 | 3.4
B11 | 28 | –
B9 | 58 | 8.6
B1 | 131 | 4

Molecular target: T2, rat µ opioid receptor
Assay: cell-based or functional assay

Binder | GTP binding rMOR Emax [%] | GTP binding rMOR EC50 [nM]
B10 | 51.4 | –
B6 | 133 | –
B4 | 25 | –
B11 | 32 | 100
B5 | 85 | 380

Molecular target: T3, human NK1 receptor (human, UniProt P25103 1-407)
T3 construct: whole, on cells; Used as membrane preparations of transfected CHO cells; also called hNK1; human neurokinin-1 receptor
T3 sequence (P25103 whole entry): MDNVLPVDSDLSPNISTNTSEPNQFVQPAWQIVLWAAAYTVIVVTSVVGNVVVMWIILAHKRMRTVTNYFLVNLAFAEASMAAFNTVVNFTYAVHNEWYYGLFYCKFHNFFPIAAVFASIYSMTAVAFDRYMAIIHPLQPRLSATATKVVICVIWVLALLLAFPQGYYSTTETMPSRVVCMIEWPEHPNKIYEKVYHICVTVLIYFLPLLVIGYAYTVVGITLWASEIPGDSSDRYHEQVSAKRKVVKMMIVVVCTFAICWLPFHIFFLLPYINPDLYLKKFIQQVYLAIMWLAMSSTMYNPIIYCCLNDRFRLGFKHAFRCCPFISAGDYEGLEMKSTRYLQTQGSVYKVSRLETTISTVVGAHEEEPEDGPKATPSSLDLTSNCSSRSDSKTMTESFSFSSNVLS
Assay: radioligand competition vs [3H]substance P, membranes of hNK1 CHO cells

Binder | Ki [nM]
B3 | 0.922
B12 | 0.61
B13 | 14
B14 | 0.0023
B15 | 0.075
B16 | 100
B4 | 0.18
B17 | 145
B1 | 0.14
B5 | 1.3
B2 | 0.952

Molecular target: T4, rat NK1 receptor (rat, UniProt P14600 1-407)
T4 construct: whole, on cells; Used as membrane preparations of transfected CHO cells; also called rNK1; rat neurokinin-1 receptor
T4 sequence (P14600 whole entry): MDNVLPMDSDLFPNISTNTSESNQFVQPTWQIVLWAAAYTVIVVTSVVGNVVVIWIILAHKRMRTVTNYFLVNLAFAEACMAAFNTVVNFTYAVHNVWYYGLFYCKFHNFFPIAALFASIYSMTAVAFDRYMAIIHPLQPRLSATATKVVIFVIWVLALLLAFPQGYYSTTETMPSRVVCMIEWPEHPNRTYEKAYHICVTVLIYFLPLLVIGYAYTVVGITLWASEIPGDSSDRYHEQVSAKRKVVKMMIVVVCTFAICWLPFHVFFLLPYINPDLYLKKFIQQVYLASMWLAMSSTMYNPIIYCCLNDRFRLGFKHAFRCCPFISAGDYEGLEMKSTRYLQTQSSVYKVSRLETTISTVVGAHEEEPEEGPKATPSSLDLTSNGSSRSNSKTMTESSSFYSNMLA
Assay: radioligand competition vs [3H]substance P, membranes of rNK1 CHO cells

Binder | Ki [nM]
B3 | 62
B12 | 32.6
B13 | 803
B18 | 6.05
B6 | 20.3
B19 | 659
B16 | 267
B4 | 4.54
B17 | 1100
B9 | 7.27
